Test [1] deals with recombinant human CD40 (ECD)-his (human) (UniProt P25942). Kind of test: SPR (Biacore 8K), hCD40(ECD)-his coupled to chip, antibody injected.
Test [2] has as its target rhesus CD40 expressed on HEK293A cells (rhesus monkey). Put plainly: FACS, HEK293A/rhesusCD40 cells. Background: In flow cytometry, cells or beads pass a laser one at a time.
Test [3] has as its target human CD40 expressed on cells (human) (UniProt P25942). Put plainly: cell-based or functional assay.
The target in test [4] is recombinant rhesus CD40 (ECD)-hFc (rhesus monkey). Kind of test: ELISA, rhCD40(ECD)-hFc coated.
recombinant rhesus CD40 (ECD)-hFc (rhesus monkey), sequence (P25942 other isoform, or with tags, fused parts or gaps): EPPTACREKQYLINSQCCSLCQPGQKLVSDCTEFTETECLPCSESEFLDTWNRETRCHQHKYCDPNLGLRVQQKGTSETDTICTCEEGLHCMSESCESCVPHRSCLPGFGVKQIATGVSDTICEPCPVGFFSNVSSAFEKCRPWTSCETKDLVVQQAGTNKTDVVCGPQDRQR
For test [5], the target named is recombinant human CD40 (ECD)-his (human) (UniProt P25942). Kind of test: ELISA, hCD40(ECD)-his coated. (In general: ELISA stands for enzyme-linked immunosorbent assay.)
Test [6] addresses human CD40 expressed on cells (human) (UniProt P25942). Put plainly: FACS, HEK293A/humanCD40 cells.

RO7009789 (antibody), sequence (VH): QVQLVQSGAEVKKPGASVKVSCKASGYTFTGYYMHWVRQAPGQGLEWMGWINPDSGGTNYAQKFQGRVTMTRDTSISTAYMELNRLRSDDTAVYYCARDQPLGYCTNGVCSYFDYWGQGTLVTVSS
RO7009789 (antibody), sequence (VL): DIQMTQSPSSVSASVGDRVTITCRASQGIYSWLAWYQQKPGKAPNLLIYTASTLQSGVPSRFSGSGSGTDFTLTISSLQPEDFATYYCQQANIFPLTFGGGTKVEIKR
human CD40 expressed on cells (human), sequence (P25942 21-277 limits assumed): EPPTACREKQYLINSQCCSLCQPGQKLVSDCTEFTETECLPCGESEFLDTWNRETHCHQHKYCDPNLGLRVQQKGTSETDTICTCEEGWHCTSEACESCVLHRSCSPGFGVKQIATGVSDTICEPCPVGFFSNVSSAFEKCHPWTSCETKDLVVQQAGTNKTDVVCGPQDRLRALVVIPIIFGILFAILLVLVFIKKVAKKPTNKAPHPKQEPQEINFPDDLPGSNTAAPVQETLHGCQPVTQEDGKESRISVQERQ
recombinant human CD40 (ECD)-his (human), sequence (P25942 21-193): as the sequence (P25942 other isoform, or with tags, fused parts or gaps) above, with S43G, R56H, L89W, M92T, S95A, P101L, L106S, R142H, Q172L counted along it
rhesus CD40 expressed on HEK293A cells (rhesus monkey), sequence (P25942 other isoform, or with tags, fused parts or gaps limits assumed): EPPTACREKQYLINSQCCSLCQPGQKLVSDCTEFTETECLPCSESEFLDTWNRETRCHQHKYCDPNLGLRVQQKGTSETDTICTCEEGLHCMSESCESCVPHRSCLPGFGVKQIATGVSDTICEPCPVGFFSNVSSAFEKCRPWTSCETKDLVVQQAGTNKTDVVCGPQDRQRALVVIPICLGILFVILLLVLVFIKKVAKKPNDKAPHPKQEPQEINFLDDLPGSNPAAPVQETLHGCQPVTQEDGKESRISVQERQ

One may read the Kd as the constant that tells how readily two partners part at equilibrium. A word on the EC50: it is the midpoint of the concentration-response curve. With RO7009789 (antibody), the Kd in test [1] is 1.71 nM. In addition, the EC50 was 0.185 µg/mL in test [2], 0.0162 µg/mL in test [4], 0.0207 µg/mL in test [5] and 0.227 µg/mL in test [6]. Besides, the HEK Blue EC50 in test [3] is 0.0233 µg/mL.

Values taken from US10654939.
